In US10494415B2, “Insulin-like growth factor 2 (IGF2) binding agents” (Cancer Research Technology Limited, priority 2015, dated 2019):

Columns and labels:
[1] = tested on: Ewing sarcoma cell line (SKNMC); assay: Synthetic lethality hit validation dose response curves; assay type: cell-based; settings: Homo sapiens, SK-N-MC
Description: For synthetic lethality hit validation, fresh stocks of the […] drugs selected as hits were obtained (pictilisib, SYNkinase and PF-04691502, Cayman Chemical). The interaction of the selected drugs and IGF2-TRAP were evaluated by Q-value calculated by the formula Q=FD+T/FD+(1−FD)FT, where FD+T represents the fraction affected by treatment with the drug plus IGF2-TRAP compared with the untreated control group, FD represents the fraction affected by the drug alone, and FT represents the fraction affected by the IGF2-TRAP alone. A value of Q>1.15 indicates a synergistic effect, Q<0.85 indicates an antagonistic effect, and Q between 0.85 and 1.15 indicates an additive effect.

IGF2 [2] = molecular target: T1, IGF2 (Homo sapiens, UniProt P01344); settings: background, literature references; cited from earlier work
T1 sequence (P01344 25-91): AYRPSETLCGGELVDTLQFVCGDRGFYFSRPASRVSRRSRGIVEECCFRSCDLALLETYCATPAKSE

IGF2 [3] = molecular target: T1, IGF2; assay: SPR (Biacore T200) of recombinant IGF2R domain 11 mutants on immobilised biotinylated IGF2; assay type: binding; set-up: purchased GroPep
Excerpt: Surface plasmon resonance (SPR) binding analysis of recombinant M6P/IGF2R domain 11 mutants interaction with IGF2. Kon indicates association (on) rate; koff, dissociation (off) rate; RU, response units. Binding to IGF2 assessed with BIAcore T200 using purified biotinylated IGF2 and IGF1 on a streptavidin biosensor chip. Recombinant proteins were expressed either in E. coli and/or P. pastoris. All the mutants in the FG and CD loops are on the domain 11^AB5 background for the AB loop unless otherwise stated. All experiments were carried out at 25° C. in HBS-EP buffer (pH 7.4), were repeated 2-5 times on two independent BIAcore chips. nd=not determined. Data for KD expressed as mean of each experiment, and means of kon and koff are shown.
Measurements were carried out at 25° C. in HBS-EP buffer (pH 7.4) (nd=not determined, np=no protein). Data for KD expressed as mean of each experiment, and means of kon and koff are shown.
Measurements were carried out at 25° C. in MES-EP buffer, 20 mM MES pH 6.5, 150 mM NaCl, 3 mM EDTA, and 0.005% (v/v) surfactant P20). Data for KD expressed as mean of each experiment, and means of kon and koff are shown.
Final kinetic analysis of mutants by SPR was conducted using a Biacore T200 biosensor at 25° C. in either HBS-EP (10 mM HEPES pH 7.4, 150 mM NaCl, 3 mM EDTA, and 0.005% (v/v) surfactant P20) or MES-EP (20 mM MES pH 6.5, 150 mM NaCl, 3 mM EDTA, and 0.005% (v/v) surfactant P20) at a flow-rate of 40 μL min^−1. […] For the analysis of the Fc-domain 11^AB5 interaction, approximately 50 RU of a biotinylated IGF2:biotinylated ubiquitin mixture (1:8 proportion) was immobilized on the CM5-streptavidin chip. This interaction was also analysed by immobilizing the Fc-domain 11^AB5 and Fc-domain 11^AB5-RHH (or Fc-domain 11^I1572A as control) by Human Antibody Capture (monoclonal mouse anti-human IgG antibody immobilised on a CM5 chip by amine coupling, GE Healthcare) with and without human IgG1 Fc fragment (Bethyl Laboratories, UK) in the control flow cell. Increasing concentrations of IGF2^1-67, proIGF2^1-104, proIGF2^1-156 and IGF1 ranging from 0.125 to 32 nM were injected. T200 BiaEvaluation software (GE Healthcare) was used to fit the resulting curves according to a 1:1 binding model. Steady state affinities were determined using the kinetic data, taking the response average at 5 seconds before injection end and for 5 seconds average. Thermodynamic data was performed across the temperature range of 10° C. to 30° C., van't Hoff and Erying plots generated and ΔH, −TΔS and ΔG values determined as previously described.

[4] = in the presence of Fc-domain 11^AB5-RHH (IGF2-TRAP)

| Molecule | Kinetics koff (IGF2 [3]; Table 3, 25° C., HBS-EP pH 7.4) | Kinetics kon (IGF2 [3]; Table 3, 25° C., HBS-EP pH 7.4) | Kinetics koff (IGF2 [3]; Table 4, MES-EP pH 6.5) | Kinetics kon (IGF2 [3]; Table 4, MES-EP pH 6.5) | other results |
| --- | --- | --- | --- | --- | --- |
| COc1ccc(-c2cc3c(C)nc(N)nc3n([C@H]3CC[C@H](OCCO)CC3)c2=O)cn1 [PF-04691502, 2-amino-8-[trans-4-(2-hydroxyethoxy)cyclohexyl]-6-(6-methoxypyridin-3-yl)-4-methylpyrido-[2,3-d]pyrimidin-7(8H)-one] | – | – | – | – | IC50 ([1]; drug alone): 420 nM; IC50 [1, 4]: 92 nM |
| CS(=O)(=O)N1CCN(Cc2cc3nc(-c4cccc5[nH]ncc45)nc(N4CCOCC4)c3s2)CC1 [Pictilisib, 4-[2-(1H-indazol-4-yl)-6-[(4-methylsulfonylpiperazin-1-yl)methyl]thieno[3,2-d]pyrimidin-4-yl]morpholine] | – | – | – | – | IC50 ([1]; drug alone): 1100 nM; IC50 [1, 4]: 140 nM |
| AB5 HI^23D: domain 11 AB5 + HI loop of clone 23D (HFQS) (protein) MKSNEHDDCQVTNPSTGHLFDLSSLSGRAGFTAAYAKGWGVYMSICGENENCPPGVGACFGQTRISVGKANKRLRYVDQVLQLVYKDGSPCPSKSGLSYKSVISFVCRPEAGPTNRPMLISLHFQSCTLFFSWHTPLACEQATECSV | 0.012 s⁻¹ | – | – | – | – |
| AB5 Q1569R P1597K S1602H: domain 11 AB5 + Q1569R, P1597K, S1602H (protein) MKSNEHDDCQVTNPSTGHLFDLSSLSGRAGFTAAYAKGWGVYMSICGENENCPPGVGACFGRTRISVGKANKRLRYVDQVLQLVYKDGSKCPSKHGLSYKSVISFVCRPEAGPTNRPMLISLDKQTCTLFFSWHTPLACEQATECSV | 0.0073 s⁻¹ | 7.87e+06 M⁻¹ s⁻¹ | – | – | – |
| AB5 Q1569R P1597H S1602H G1603K: domain 11 AB5 + Q1569R, P1597H, S1602H, G1603K (protein) MKSNEHDDCQVTNPSTGHLFDLSSLSGRAGFTAAYAKGWGVYMSICGENENCPPGVGACFGRTRISVGKANKRLRYVDQVLQLVYKDGSHCPSKHKLSYKSVISFVCRPEAGPTNRPMLISLDKQTCTLFFSWHTPLACEQATECSV | 0.005 s⁻¹ | – | – | – | – |
| AB5 Q1569R P1597H G1603K: domain 11 AB5 + Q1569R, P1597H, G1603K (protein) MKSNEHDDCQVTNPSTGHLFDLSSLSGRAGFTAAYAKGWGVYMSICGENENCPPGVGACFGRTRISVGKANKRLRYVDQVLQLVYKDGSHCPSKSKLSYKSVISFVCRPEAGPTNRPMLISLDKQTCTLFFSWHTPLACEQATECSV | 0.0058 s⁻¹ | 6.67e+06 M⁻¹ s⁻¹ | 0.0051 s⁻¹ | 7.54e+06 M⁻¹ s⁻¹ | – |
| AB5 Q1569R P1597H: domain 11 AB5 + Q1569R, P1597H (protein) MKSNEHDDCQVTNPSTGHLFDLSSLSGRAGFTAAYAKGWGVYMSICGENENCPPGVGACFGRTRISVGKANKRLRYVDQVLQLVYKDGSHCPSKSGLSYKSVISFVCRPEAGPTNRPMLISLDKQTCTLFFSWHTPLACEQATECSV | 0.0058 s⁻¹ | 3.2e+06 M⁻¹ s⁻¹ | 0.0034 s⁻¹ | 2.37e+06 M⁻¹ s⁻¹ | – |
| AB5 Q1569R P1597K: domain 11 AB5 + Q1569R, P1597K (protein) MKSNEHDDCQVTNPSTGHLFDLSSLSGRAGFTAAYAKGWGVYMSICGENENCPPGVGACFGRTRISVGKANKRLRYVDQVLQLVYKDGSKCPSKSGLSYKSVISFVCRPEAGPTNRPMLISLDKQTCTLFFSWHTPLACEQATECSV | 0.0091 s⁻¹ | 9.59e+06 M⁻¹ s⁻¹ | – | – | – |
| AB5 Q1569R P1597H K1631W: domain 11 AB5 + Q1569R, P1597H, K1631W (protein) MKSNEHDDCQVTNPSTGHLFDLSSLSGRAGFTAAYAKGWGVYMSICGENENCPPGVGACFGRTRISVGKANKRLRYVDQVLQLVYKDGSHCPSKSGLSYKSVISFVCRPEAGPTNRPMLISLDWQTCTLFFSWHTPLACEQATECSV | 0.0115 s⁻¹ | 1.12e+07 M⁻¹ s⁻¹ | – | – | – |
| AB5 P1597K S1602H: domain 11 AB5 + P1597K, S1602H (protein) MKSNEHDDCQVTNPSTGHLFDLSSLSGRAGFTAAYAKGWGVYMSICGENENCPPGVGACFGQTRISVGKANKRLRYVDQVLQLVYKDGSKCPSKHGLSYKSVISFVCRPEAGPTNRPMLISLDKQTCTLFFSWHTPLACEQATECSV | 0.0096 s⁻¹ | 2.09e+06 M⁻¹ s⁻¹ | – | – | – |

Second part, led by results:

| Kinetics koff (IGF2 [3]; Table 3, 25° C., HBS-EP pH 7.4) | Kinetics kon (IGF2 [3]; Table 3, 25° C., HBS-EP pH 7.4) | Kinetics koff (IGF2 [3]; Table 4, MES-EP pH 6.5) | Kinetics kon (IGF2 [3]; Table 4, MES-EP pH 6.5) | Molecule | other results |
| --- | --- | --- | --- | --- | --- |
| 0.044 s⁻¹ | 2.76e+06 M⁻¹ s⁻¹ | 0.0381 s⁻¹ | 3.43e+06 M⁻¹ s⁻¹ | AB3: IGF2R domain 11 with AB loop mutations E1544K, K1545S, L1547V (YSKSGV) (protein) MKSNEHDDCQVTNPSTGHLFDLSSLSGRAGFTAAYSKSGVVYMSICGENENCPPGVGACFGQTRISVGKANKRLRYVDQVLQLVYKDGSPCPSKSGLSYKSVISFVCRPEAGPTNRPMLISLDKQTCTLFFSWHTPLACEQATECSV | Kd (IGF2 [2]): 15 nM; Kinetics koff (IGF2 [3]; Table 1, 25° C., HBS-EP pH 7.4): 0.044 s⁻¹; Kinetics kon (IGF2 [3]; Table 1, 25° C., HBS-EP pH 7.4): 2.76e+06 M⁻¹ s⁻¹; Kinetics koff (IGF2 [3]; Table 2): 0.044 s⁻¹; Kinetics kon (IGF2 [3]; Table 2): 2.76e+06 M⁻¹ s⁻¹ |
| 0.008 s⁻¹ | – | – | – | AB5 Q1569R P1597K S1602H G1603K: domain 11 AB5 + Q1569R, P1597K, S1602H, G1603K (protein) MKSNEHDDCQVTNPSTGHLFDLSSLSGRAGFTAAYAKGWGVYMSICGENENCPPGVGACFGRTRISVGKANKRLRYVDQVLQLVYKDGSKCPSKHKLSYKSVISFVCRPEAGPTNRPMLISLDKQTCTLFFSWHTPLACEQATECSV | – |
| – | – | 0.1441 s⁻¹ | 2.68e+06 M⁻¹ s⁻¹ | WT: wild-type human IGF2R domain 11 (residues 1511-1650), AB loop YSEKGL (protein) MKSNEHDDCQVTNPSTGHLFDLSSLSGRAGFTAAYSEKGLVYMSICGENENCPPGVGACFGQTRISVGKANKRLRYVDQVLQLVYKDGSPCPSKSGLSYKSVISFVCRPEAGPTNRPMLISLDKQTCTLFFSWHTPLACEQATECSV | Kd (IGF2 [2]): 40 to 60 nM; Kinetics koff (IGF2 [3]; Table 1, 25° C., HBS-EP pH 7.4): 0.23 s⁻¹; Kinetics kon (IGF2 [3]; Table 1, 25° C., HBS-EP pH 7.4): 5e+06 M⁻¹ s⁻¹; Kinetics koff (IGF2 [3]; Table 2): 0.23 s⁻¹; Kinetics kon (IGF2 [3]; Table 2): 5e+06 M⁻¹ s⁻¹; ΔH of IGF2 interaction (IGF2 [3]; van't Hoff, 10° C. to 30° C.): < 0; −TΔS of IGF2 interaction (IGF2 [3]; van't Hoff, 10° C. to 30° C.): > 0 |
| 0.0046 s⁻¹ | 3.5e+06 M⁻¹ s⁻¹ | 0.0029 s⁻¹ | 5.32e+06 M⁻¹ s⁻¹ | AB5 P1597H S1602H: domain 11 AB5 + P1597H, S1602H (protein) MKSNEHDDCQVTNPSTGHLFDLSSLSGRAGFTAAYAKGWGVYMSICGENENCPPGVGACFGQTRISVGKANKRLRYVDQVLQLVYKDGSHCPSKHGLSYKSVISFVCRPEAGPTNRPMLISLDKQTCTLFFSWHTPLACEQATECSV | – |
